PMC6872904

Molecular target: Bmp8
Test: SEC

stoichiometry N: 2
Substance: Bmp8 (enzyme)
